Data on two molecules can be found in PMC3296483 (Biochemical Journal, 2011).

Series [1] addresses GluA2 ATD (Rattus norvegicus) (UniProt P19491). Particulars: cited from earlier work.
The series “crystal structure” concerns the molecule itself. Briefly: crystal structure.

GluA2 ATD (Rattus norvegicus), sequence (P19491 22-398): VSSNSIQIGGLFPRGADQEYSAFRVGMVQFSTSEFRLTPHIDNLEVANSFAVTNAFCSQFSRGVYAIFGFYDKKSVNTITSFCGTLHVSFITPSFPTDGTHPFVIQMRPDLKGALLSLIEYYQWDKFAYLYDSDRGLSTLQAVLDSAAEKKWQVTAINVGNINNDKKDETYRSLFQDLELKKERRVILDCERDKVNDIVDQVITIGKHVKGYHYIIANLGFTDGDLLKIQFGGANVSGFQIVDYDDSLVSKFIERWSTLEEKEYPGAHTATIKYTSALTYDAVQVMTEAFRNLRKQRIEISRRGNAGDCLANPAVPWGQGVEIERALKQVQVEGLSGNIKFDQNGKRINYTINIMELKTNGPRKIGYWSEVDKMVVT

For GluA1 ATD (from UniProt P19490), the Kd in series [1] is 0.4 nM.

B1: rat GluA1 amino-terminal domain (P4-A374), tags removed (domain or fragment, UniProt P19490 22-392, looked up)
chain: PNNIQIGGLFPNQQSQEHAAFRFALSQLTEPPKLLPQIDIVNISDSFEMTYRFCSQFSKGVYAIFGFYERRTVNMLTSFCGALHVCFITPSFPVDTSNQFVLQLRPELQEALISIIDHYKWQTFVYIYDADRGLSVLQRVLDTAAEKNWQVTAVNILTTTEEGYRMLFQDLEKKKERLVVVDCESERLNAILGQIVKLEKNGIGYHYILANLGFMDIDLNKFKESGANVTGFQLVNYTDTIPARIMQQWRTSDSRDHTRVDWKRPKYTSALTYDGVKVMAEAFQSLRRQRIDISRRGNAGDCLANPAVPWGQGIDIQRALQQVRFEGLTGNVQFNEKGRRTNYTLHVIEMKHDGIRKIGYWNEDDKFVPAA
For B1, the binding result in the series “crystal structure” is “binds”.
